{"source": "paper PMC8064030", "biological_target": "HIV-1 CA carrying the A92E substitution (HIV-1)", "assay": "cryo-EM structure"}
{"substance": "HIV-1 CA carrying the A92E substitution (natural protein)", "values": [{"measurement": "stoichiometry N", "value": 6}]}
